The results in this text go back to doi:10.1101/2025.03.09.641110 (bioRxiv, 2025).

The experiment concerns the target extracellular domain of human PD-1 (Programmed cell death protein 1) (Homo sapiens, UniProt Q15116). Put plainly: SPR.

Chain of extracellular domain of human PD-1 (Programmed cell death protein 1) (Q15116 25-170): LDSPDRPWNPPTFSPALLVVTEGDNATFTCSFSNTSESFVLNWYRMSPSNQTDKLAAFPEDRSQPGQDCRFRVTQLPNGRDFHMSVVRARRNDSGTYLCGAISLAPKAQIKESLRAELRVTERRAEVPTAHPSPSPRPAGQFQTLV

B1: ALX07xh-05 (direct CDR-grafted humanized ALX07) (antibody, V domains shown)
VH: QVTLKESGPALVKPTQTLTLTCTFSGFSLSTSALGVGWIRQPPGKALEWLAHIWWNDVKRSNPALKGRLTISKDTSKNQVVLTMTNMDPVDTATYYCARSYGNHWYFDVWGQGTLVTVSS
VL: DIVMTQSPDSLAVSLGERATINCKASQSVSNDVAWYQQKPGQPPKLLIYYAFTRYIGVPDRFSGSGSGTDFTLTISSLQAEDVAVYYCQQDYISPYTFGQGTKLEIK
The Kd is the equilibrium constant for the complex coming apart. In turn, B1 returned a Kd of 140 nM.

B2: humanized ALX07 (CDR graft) with the S67Y back mutation in the light chain alone (antibody, V domains shown)
VH: QVTLKESGPALVKPTQTLTLTCTFSGFSLSTSALGVGWIRQPPGKALEWLAHIWWNDVKRSNPALKGRLTISKDTSKNQVVLTMTNMDPVDTATYYCARSYGNHWYFDVWGQGTLVTVSS
VL: DIVMTQSPDSLAVSLGERATINCKASQSVSNDVAWYQQKPGQPPKLLIYYAFTRYIGVPDRFSGSGYGTDFTLTISSLQAEDVAVYYCQQDYISPYTFGQGTKLEIK
With B2, binding was characterised by a dissociation constant (Kd) of 2.01 nM.

B3: chimeric ALX07 (murine ALX07 variable regions, IgG4 chimeric antibody) (antibody, V domains shown)
VH: QVTLKESGPGILQPSQTLSLTCSFSGFSLSTSALGVGWIRQPPGKGLVWLAHIWWNDVKRSNPALKGRLTISKDTSSSQVFLNIANVDTADTATYYCARSYGNHWYFDVWGAGTTVTVSS
VL: SVVMTQTPKFLLVSAGDRVTIACKASQSVSNDVAWFQQKPGQSPKLLIYYAFTRYIGVPDRFTASGYGTDFTFTISTVQAEDLAIYFCQQDYISPYTFGGGTKLEIK
Consider B3, for which the Kd stood at 1.31 nM.
